{"source": "paper doi:10.1101/2024.02.06.578578", "target": "SkSGLc, SkSGL from Sanguibacter keddieii (KEGG locus tag, Sked_30460) with a C-terminal His6-tag (Sanguibacter keddieii)", "assay": "SEC"}
{"substance": "SkSGLc, SkSGL from Sanguibacter keddieii (KEGG locus tag, Sked_30460) with a C-terminal His6-tag (enzyme)", "values": [{"measurement": "stoichiometry N", "value": 2}]}
